According to paper PMC11371640, “Structural deficits in key domains of Shank2 lead to alterations in postsynaptic nanoclusters and to a neurodevelopmental disorder in humans” (Molecular Psychiatry, 2022):
Positions count from the first letter of the chain named. In names and notes the source's numbering stands. Several values for one entry are separate records, joined by “and”; a condition that tells them apart may be missing. Equal entries are not always repeated.

Tests used:
[1] = biological target: the molecule itself; assay: turbidity (absorbance at 350 nm); His6-SUMO-tagged SAM domains, 10 µM, mixed with Zn2+ in 96-well plates (200 µl); absorbance after 10 min or every 10 s with 10 µM Zn2+; 0.5 M NaCl, 20 mM Tris/HCl pH 7.5
[2] = biological target: the molecule itself; assay: crystal structure; Shank2-SAM WT (0.1 M Bis-Tris pH 5.5, 0.3 M Mg-formate) and L1800W (0.1 M Bis-Tris pH 5.5, 26% PEG 2000MME); sitting drop vapor diffusion; contacts between symmetry-related SAM domains in the crystal; no Zn2+ added
[3] = biological target: the molecule itself; assay: dynamic light scattering; isolated SAM domains (tag cleaved), 50 µM protein and 50 µM Zn2+, 1 h at room temperature, filtered 0.22 µm
[4] = biological target: T1, His6-SUMO-tagged SH3 to PDZ domains of Shank2 (R520-D727), V717F ( (human or rat cDNA cloned), UniProt Q9UPX8-3 520-727, V717F); assay: ITC
T1 sequence: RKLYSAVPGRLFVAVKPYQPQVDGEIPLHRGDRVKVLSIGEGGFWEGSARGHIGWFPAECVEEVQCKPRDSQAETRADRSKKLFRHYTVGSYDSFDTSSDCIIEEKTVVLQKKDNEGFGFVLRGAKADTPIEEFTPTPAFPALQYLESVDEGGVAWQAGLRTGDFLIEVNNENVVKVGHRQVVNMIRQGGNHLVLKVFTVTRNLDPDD

[5] = biological target: T2, His6-SUMO-tagged SH3 to PDZ domains of Shank2 (R520-D727), WT ( (human or rat cDNA cloned), UniProt Q9UPX8-3 520-727); assay: ITC
T2 chain: T1 sequence with F198V

[6] = biological target: T3, His6-SUMO-tagged SH3 to PDZ domains of Shank2 (R520-D727), G643R ( (human or rat cDNA cloned), UniProt Q9UPX8-3 520-727, G643R); assay: ITC
T3 sequence: T1 sequence with G124R, F198V

[7] = biological target: T4, His6-SUMO-tagged SH3 to PDZ domains of Shank2 (R520-D727), S610Y ( (human or rat cDNA cloned), UniProt Q9UPX8-3 520-727, S610Y); assay: ITC
T4 sequence: T1 sequence with S91Y, F198V

[8] = biological target: T5, His6-SUMO-tagged SH3 to PDZ domains of Shank2 (R520-D727), N690S ( (human or rat cDNA cloned), UniProt Q9UPX8-3 520-727, N690S); assay: ITC
T5 sequence: T1 sequence with N171S, F198V

[9] = biological target: T6, His6-SUMO-tagged SH3 to PDZ domains of Shank2 (R520-D727), WT ( (human or rat cDNA cloned), UniProt Q9UPX8-3 520-727); assay: ITC; peptide in the syringe (200 µM; 1 mM for G643R), His6-SUMO SH3-PDZ protein in the cell (20-30 µM); 25 °C; 50 mM Tris-HCl pH 8.0, 100 mM NaCl, 1 mM EDTA; 1:1 binding model; conditions: both partners purified
T6 construct: Shank2, SH3 to PDZ domains, residues R520-D727; numbers count on: NM_012309.5 (isoform of 1849 residues); Cloned into pET-SUMO; also called His6-SUMO-SH3-PDZ fusion; Shank2 WT; source: E. coli BL21(DE3), purified (Ni-NTA agarose, G-25); not shown: His6, N-terminal, kept; SUMO, N-terminal, kept
T6 sequence (looked up): T1 sequence with F198V

[10] = biological target: T7, His6-SUMO-tagged SH3 to PDZ domains of Shank2 (R520-D727), N690S ( (human or rat cDNA cloned), UniProt Q9UPX8-3 520-727, N690S); assay: as above; conditions: both partners purified
T7 construct: Shank2, SH3 to PDZ domains, residues R520-D727, patient variant N690S; numbers count on: NM_012309.5 (isoform of 1849 residues); source: E. coli BL21(DE3), purified (Ni-NTA agarose, G-25); not shown: His6, N-terminal, kept; SUMO, N-terminal, kept
T7 sequence (looked up): T1 sequence with N171S, F198V

[11] = biological target: T8, His6-SUMO-tagged SH3 to PDZ domains of Shank2 (R520-D727), S610Y ( (human or rat cDNA cloned), UniProt Q9UPX8-3 520-727, S610Y); assay: as above; conditions: both partners purified
T8 construct: Shank2, SH3 to PDZ domains, residues R520-D727, patient variant S610Y; numbers count on: NM_012309.5 (isoform of 1849 residues); source: E. coli BL21(DE3), purified (Ni-NTA agarose, G-25); not shown: His6, N-terminal, kept; SUMO, N-terminal, kept
T8 sequence (looked up): T1 sequence with S91Y, F198V

[12] = biological target: T9, His6-SUMO-tagged SH3 to PDZ domains of Shank2 (R520-D727), G643R ( (human or rat cDNA cloned), UniProt Q9UPX8-3 520-727, G643R); assay: as above; conditions: both partners purified
T9 construct: Shank2, SH3 to PDZ domains, residues R520-D727, patient variant G643R; numbers count on: NM_012309.5 (isoform of 1849 residues); also called G643R mutant Shank2; G643R variant; source: E. coli BL21(DE3), purified (Ni-NTA agarose, G-25); not shown: His6, N-terminal, kept; SUMO, N-terminal, kept
T9 sequence (looked up): T1 sequence with G124R, F198V

[13] = biological target: T10, His6-SUMO-tagged SH3 to PDZ domains of Shank2 (R520-D727), V717F ( (human or rat cDNA cloned), UniProt Q9UPX8-3 520-727, V717F); assay: as above; conditions: both partners purified
T10 construct: Shank2, SH3 to PDZ domains, residues R520-D727, patient variant V717F; numbers count on: NM_012309.5 (isoform of 1849 residues); source: E. coli BL21(DE3), purified (Ni-NTA agarose, G-25); not shown: His6, N-terminal, kept; SUMO, N-terminal, kept
T10 sequence (looked up): T1 sequence

B1: His6-SUMO-tagged Shank2-SAM domain (T1780-R1849), WT (domain or fragment, UniProt Q9UPX8-3 1780-1849, looked up)
chain: TKPVHLWTKPDVADWLESLNLGEHKEAFMDNEIDGSHLPNLQKEDLIDLGVTRVGHRMNIERALKQLLDR
notes: Shank2 SAM domain, residues T1780-R1849; numbers count on: NM_012309.5 (isoform of 1849 residues); also called SUMO-SAM fusion; WT SAM domain; source: E. coli BL21(DE3), purified (Ni-NTA agarose, G-25); not shown: His6, N-terminal, kept; SUMO, N-terminal, kept
B1: binds [1].

B2: His6-SUMO-tagged Shank2-SAM domain (T1780-R1849), L1800W (domain or fragment, UniProt Q9UPX8-3 1780-1849, looked up)
chain: B1 chain with L21W
notes: Shank2 SAM domain, residues T1780-R1849, patient variant L1800W; numbers count on: NM_012309.5 (isoform of 1849 residues); also called L1800W mutant; p.L1800W SAM domain; source: E. coli BL21(DE3), purified (Ni-NTA agarose, G-25); not shown: His6, N-terminal, kept; SUMO, N-terminal, kept
B2: binds [1].

B3: Shank2-SAM domain (T1780-R1849), L1800W, His-SUMO tag cleaved off (domain or fragment, UniProt Q9UPX8-3 1780-1849, looked up)
chain: B1 chain with L21W
notes: Shank2 SAM domain, residues T1780-R1849, patient variant L1800W; numbers count on: NM_012309.5 (isoform of 1849 residues); also called SAM-L1800W; L1800W mutant SAM domain; source: E. coli BL21(DE3), purified (Ni-NTA agarose), tag cleaved with SUMO protease and removed on Ni-NTA; not shown: His6, N-terminal, cleaved; SUMO, N-terminal, cleaved
B3: binds [2].

B4: Shank2-SAM domain (T1780-R1849), WT, His-SUMO tag cleaved off (domain or fragment, UniProt Q9UPX8-3 1780-1849, looked up)
chain: B1 chain
notes: Shank2 SAM domain, residues T1780-R1849; numbers count on: NM_012309.5 (isoform of 1849 residues); also called SAM-WT; Shank2-SAM WT; source: E. coli BL21(DE3), purified (Ni-NTA agarose), tag cleaved with SUMO protease and removed on Ni-NTA; not shown: His6, N-terminal, cleaved; SUMO, N-terminal, cleaved
B4: binds [3].

B5: synthetic peptide of the complete PDZ ligand of GKAP (last 15 amino acids of GKAP/SAPAP1) (peptide)
peptide: ADSIEIYIPEAQTRL
notes: GKAP/SAPAP1, the last 15 amino acids (complete PDZ ligand), free N- and C-terminus; also called GKAP peptide; source: synthetic peptide (Genscript)
For B5, the Kd [4] was 848 nM, the Kd [5] was 319 nM and 320 nM and the Kd [6] was 22000 nM and 22500 nM. The Kd [7] was 910 nM, the Kd [8] was 411 nM and the binding result [9] was “binds”. For the same binder, the binding result [10] was “binds”, the binding result [11] was “binds” and the “fold reduction of affinity against WT” value [12] was over 70 fold. B5: binds [13].

B6: synthetic peptide of the C-terminal PDZ ligand of CIRL1/latrophilin (peptide)
peptide: PGPDGDGQMQLVTSL
notes: CIRL1/latrophilin, C-terminal PDZ ligand (15 residues), free N- and C-terminus; also called CIRL1 peptide; source: synthetic peptide (Genscript)
With B6 the “fold reduction of affinity against the GKAP peptide” value [9] was about 40 fold.
